Results: paper PMC10907169
Where “and” joins values, the source holds several entries; their conditions need not be identical. Equal entries are not always repeated.

Molecular target: T1, Full-length human KIF5A heavy chain (WT), C-terminal FLAG tag (human), Q12840
T1 chain: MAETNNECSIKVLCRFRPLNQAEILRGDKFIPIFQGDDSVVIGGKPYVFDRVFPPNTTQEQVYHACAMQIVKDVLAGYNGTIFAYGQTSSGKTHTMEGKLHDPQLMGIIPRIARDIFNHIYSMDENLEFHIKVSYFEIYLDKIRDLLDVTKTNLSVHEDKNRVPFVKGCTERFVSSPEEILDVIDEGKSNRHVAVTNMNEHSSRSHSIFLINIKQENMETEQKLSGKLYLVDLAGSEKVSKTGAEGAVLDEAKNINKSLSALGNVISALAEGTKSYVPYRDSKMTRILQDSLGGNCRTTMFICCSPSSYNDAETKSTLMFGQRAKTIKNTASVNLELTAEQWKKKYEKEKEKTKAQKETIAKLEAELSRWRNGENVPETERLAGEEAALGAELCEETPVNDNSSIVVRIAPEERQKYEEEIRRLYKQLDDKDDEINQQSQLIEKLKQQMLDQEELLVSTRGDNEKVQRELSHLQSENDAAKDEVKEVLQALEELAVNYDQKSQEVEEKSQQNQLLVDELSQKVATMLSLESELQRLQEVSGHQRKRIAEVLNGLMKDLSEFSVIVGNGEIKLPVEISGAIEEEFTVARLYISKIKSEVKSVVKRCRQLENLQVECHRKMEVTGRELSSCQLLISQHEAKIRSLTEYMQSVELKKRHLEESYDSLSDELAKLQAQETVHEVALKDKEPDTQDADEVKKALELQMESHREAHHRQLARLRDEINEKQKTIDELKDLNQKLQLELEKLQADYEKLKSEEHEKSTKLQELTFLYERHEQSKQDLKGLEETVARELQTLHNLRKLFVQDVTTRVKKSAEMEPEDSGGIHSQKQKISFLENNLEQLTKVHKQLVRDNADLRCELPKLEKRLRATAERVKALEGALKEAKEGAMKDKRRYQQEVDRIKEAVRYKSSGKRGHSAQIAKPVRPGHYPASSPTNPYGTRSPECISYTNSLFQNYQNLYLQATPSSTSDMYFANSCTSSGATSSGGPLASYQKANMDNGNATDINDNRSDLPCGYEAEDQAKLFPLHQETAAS
Experiment: mass photometry; single-molecule landing assay, Refeyn OneMP, 25 nM KIF5A, room temperature (~23 °C); results say low salt buffer (150 mM KCl), methods name PBS; monomer to dimer, and dimers to tetramer
Conditions: remark: other sources report otherwise

- stoichiometry N: 2 and 4
B1: Full-length human KIF5A heavy chain (WT), C-terminal FLAG tag, Q12840 1-1032 (natural protein)
chain: MAETNNECSIKVLCRFRPLNQAEILRGDKFIPIFQGDDSVVIGGKPYVFDRVFPPNTTQEQVYHACAMQIVKDVLAGYNGTIFAYGQTSSGKTHTMEGKLHDPQLMGIIPRIARDIFNHIYSMDENLEFHIKVSYFEIYLDKIRDLLDVTKTNLSVHEDKNRVPFVKGCTERFVSSPEEILDVIDEGKSNRHVAVTNMNEHSSRSHSIFLINIKQENMETEQKLSGKLYLVDLAGSEKVSKTGAEGAVLDEAKNINKSLSALGNVISALAEGTKSYVPYRDSKMTRILQDSLGGNCRTTMFICCSPSSYNDAETKSTLMFGQRAKTIKNTASVNLELTAEQWKKKYEKEKEKTKAQKETIAKLEAELSRWRNGENVPETERLAGEEAALGAELCEETPVNDNSSIVVRIAPEERQKYEEEIRRLYKQLDDKDDEINQQSQLIEKLKQQMLDQEELLVSTRGDNEKVQRELSHLQSENDAAKDEVKEVLQALEELAVNYDQKSQEVEEKSQQNQLLVDELSQKVATMLSLESELQRLQEVSGHQRKRIAEVLNGLMKDLSEFSVIVGNGEIKLPVEISGAIEEEFTVARLYISKIKSEVKSVVKRCRQLENLQVECHRKMEVTGRELSSCQLLISQHEAKIRSLTEYMQSVELKKRHLEESYDSLSDELAKLQAQETVHEVALKDKEPDTQDADEVKKALELQMESHREAHHRQLARLRDEINEKQKTIDELKDLNQKLQLELEKLQADYEKLKSEEHEKSTKLQELTFLYERHEQSKQDLKGLEETVARELQTLHNLRKLFVQDVTTRVKKSAEMEPEDSGGIHSQKQKISFLENNLEQLTKVHKQLVRDNADLRCELPKLEKRLRATAERVKALEGALKEAKEGAMKDKRRYQQEVDRIKEAVRYKSSGKRGHSAQIAKPVRPGHYPASSPTNPYGTRSPECISYTNSLFQNYQNLYLQATPSSTSDMYFANSCTSSGATSSGGPLASYQKANMDNGNATDINDNRSDLPCGYEAEDQAKLFPLHQETAAS
